Test results taken from patent US20240301052A1 (LANOVA MEDICINES DEVELOPMENT, published 2024).
Substitutions are numbered along the chain they refer to. Like-named read-outs stand apart in the source and are kept apart here.

How the values were obtained:
human SLC34A2 [1] = target: T1, human SLC34A2 (human, UniProt O95436 1-690); test: cell-based or functional assay
T1 sequence (looked up): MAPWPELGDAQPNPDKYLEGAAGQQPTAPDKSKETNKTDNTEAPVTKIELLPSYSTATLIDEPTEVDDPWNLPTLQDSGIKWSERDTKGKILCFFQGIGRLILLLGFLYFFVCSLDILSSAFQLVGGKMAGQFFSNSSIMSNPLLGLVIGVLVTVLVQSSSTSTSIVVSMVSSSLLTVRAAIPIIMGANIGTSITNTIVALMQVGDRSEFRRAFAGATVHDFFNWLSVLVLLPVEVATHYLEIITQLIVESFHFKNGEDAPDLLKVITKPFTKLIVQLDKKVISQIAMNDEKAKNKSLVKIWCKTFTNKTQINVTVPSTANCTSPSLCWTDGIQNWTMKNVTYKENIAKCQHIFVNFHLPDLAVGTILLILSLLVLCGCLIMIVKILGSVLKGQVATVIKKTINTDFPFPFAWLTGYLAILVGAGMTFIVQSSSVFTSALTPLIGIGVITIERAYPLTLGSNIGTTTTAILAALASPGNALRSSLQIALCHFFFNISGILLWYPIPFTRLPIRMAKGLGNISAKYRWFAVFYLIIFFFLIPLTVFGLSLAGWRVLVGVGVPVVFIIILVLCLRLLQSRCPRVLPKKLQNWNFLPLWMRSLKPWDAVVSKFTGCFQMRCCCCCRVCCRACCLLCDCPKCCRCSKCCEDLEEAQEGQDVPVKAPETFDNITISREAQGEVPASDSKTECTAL

Rhesus SLC34A2 [2] = target: T2, Rhesus SLC34A2 (Rhesus, UniProt F7HDA3 1-690); test: FACS, HEK293/Rhesus SLC34A2 cells
T2 construct: whole, on cells
T2 sequence: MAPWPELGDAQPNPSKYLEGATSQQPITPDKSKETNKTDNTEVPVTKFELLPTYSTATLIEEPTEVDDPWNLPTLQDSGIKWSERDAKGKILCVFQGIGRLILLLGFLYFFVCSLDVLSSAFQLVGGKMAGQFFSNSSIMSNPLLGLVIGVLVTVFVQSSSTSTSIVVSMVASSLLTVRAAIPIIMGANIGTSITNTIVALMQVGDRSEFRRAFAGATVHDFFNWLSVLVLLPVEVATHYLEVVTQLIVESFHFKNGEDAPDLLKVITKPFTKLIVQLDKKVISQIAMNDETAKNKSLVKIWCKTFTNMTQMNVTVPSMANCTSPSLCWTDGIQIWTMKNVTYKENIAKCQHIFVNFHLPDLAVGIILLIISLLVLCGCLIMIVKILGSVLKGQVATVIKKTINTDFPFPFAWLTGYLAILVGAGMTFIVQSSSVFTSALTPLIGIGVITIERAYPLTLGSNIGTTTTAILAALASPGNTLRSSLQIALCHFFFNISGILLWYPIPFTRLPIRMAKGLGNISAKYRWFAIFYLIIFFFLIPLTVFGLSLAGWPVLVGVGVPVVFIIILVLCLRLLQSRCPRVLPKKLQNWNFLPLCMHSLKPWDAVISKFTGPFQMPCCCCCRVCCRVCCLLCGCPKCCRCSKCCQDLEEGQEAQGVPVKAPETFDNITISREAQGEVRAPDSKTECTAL

human SLC34A2 [3] = target: T1, human SLC34A2; test: FACS, HEK293/human SLC34A2 cells
Experimental: Briefly, OVCAR3 cells or HEK293 cells expressing human SLC34A2 were incubated with chimeric antibodies (from 200 nM, 4 folds dilution, 8 points). After incubation at 4° C. for 60 minutes, the cells were washed with FACS buffer twice, then stained with fluorescent conjugated secondary antibody at 4° C. for 30 minutes. After that the cells were washed twice and analyzed by flow cytometry.

human SLC34A2 [4] = target: T1, human SLC34A2; test: cell-based or functional assay; remark: listed apart in the source
human SLC34A2 [5] = target: T1, human SLC34A2; test: FACS, OVCAR3 cells
Method in brief: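 Flow cytometry binding: cells (OVCAR3, or HEK293 transfected with human SLC34A2) exposed 60 min at 4° C to chimeric hIgG1, 8-point 4-fold series starting 200 nM. Washed, stained 30 min at 4° C with fluorescent anti-human secondary, then analysed.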

human SLC34A2 [6] = target: T1, human SLC34A2; test: FACS, RMG-1 cells
Method in brief: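 Flow-cytometric binding of chimeric antibodies (8-point, 4-fold dilutions from 200 nM) to RMG-1 cells, 60 min at 4° C, followed by fluorescent secondary antibody for 30 min at 4° C.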

rat SLC34A2 [7] = target: T3, rat SLC34A2 (rat, UniProt Q9JJ09 1-695); test: FACS, HEK293/Rat SLC34A2 cells
T3 construct: whole, on cells
T3 sequence (looked up): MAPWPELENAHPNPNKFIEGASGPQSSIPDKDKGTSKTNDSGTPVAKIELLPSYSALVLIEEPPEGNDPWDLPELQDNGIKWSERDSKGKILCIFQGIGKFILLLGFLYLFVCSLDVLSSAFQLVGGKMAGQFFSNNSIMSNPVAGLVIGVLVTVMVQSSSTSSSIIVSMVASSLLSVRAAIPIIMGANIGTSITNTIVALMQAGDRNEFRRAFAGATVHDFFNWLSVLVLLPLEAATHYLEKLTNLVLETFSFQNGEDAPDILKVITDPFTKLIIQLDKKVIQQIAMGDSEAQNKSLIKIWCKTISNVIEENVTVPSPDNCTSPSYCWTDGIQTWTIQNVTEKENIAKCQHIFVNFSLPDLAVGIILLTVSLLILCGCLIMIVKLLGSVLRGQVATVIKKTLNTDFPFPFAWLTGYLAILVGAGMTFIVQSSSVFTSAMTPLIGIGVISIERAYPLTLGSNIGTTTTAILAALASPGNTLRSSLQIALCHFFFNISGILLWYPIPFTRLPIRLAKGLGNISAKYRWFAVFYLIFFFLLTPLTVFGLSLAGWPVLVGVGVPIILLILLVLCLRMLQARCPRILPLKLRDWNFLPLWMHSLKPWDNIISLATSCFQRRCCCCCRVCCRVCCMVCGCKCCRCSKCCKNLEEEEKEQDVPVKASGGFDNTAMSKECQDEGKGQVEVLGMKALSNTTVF

human SLC34A2 [8] = target: T1, human SLC34A2; test: cell-based or functional assay; remark: listed apart in the source
[9] = target: Cynomolgus SLC34A2 (Cynomolgus); test: FACS, cells expressing Cynomolgus SLC34A2
mouse SLC34A2 [10] = target: T4, mouse SLC34A2 (mouse, UniProt Q9DBP0 1-697); test: FACS, HEK293/Mouse SLC34A2 cells
T4 construct: whole, on cells
T4 sequence (looked up): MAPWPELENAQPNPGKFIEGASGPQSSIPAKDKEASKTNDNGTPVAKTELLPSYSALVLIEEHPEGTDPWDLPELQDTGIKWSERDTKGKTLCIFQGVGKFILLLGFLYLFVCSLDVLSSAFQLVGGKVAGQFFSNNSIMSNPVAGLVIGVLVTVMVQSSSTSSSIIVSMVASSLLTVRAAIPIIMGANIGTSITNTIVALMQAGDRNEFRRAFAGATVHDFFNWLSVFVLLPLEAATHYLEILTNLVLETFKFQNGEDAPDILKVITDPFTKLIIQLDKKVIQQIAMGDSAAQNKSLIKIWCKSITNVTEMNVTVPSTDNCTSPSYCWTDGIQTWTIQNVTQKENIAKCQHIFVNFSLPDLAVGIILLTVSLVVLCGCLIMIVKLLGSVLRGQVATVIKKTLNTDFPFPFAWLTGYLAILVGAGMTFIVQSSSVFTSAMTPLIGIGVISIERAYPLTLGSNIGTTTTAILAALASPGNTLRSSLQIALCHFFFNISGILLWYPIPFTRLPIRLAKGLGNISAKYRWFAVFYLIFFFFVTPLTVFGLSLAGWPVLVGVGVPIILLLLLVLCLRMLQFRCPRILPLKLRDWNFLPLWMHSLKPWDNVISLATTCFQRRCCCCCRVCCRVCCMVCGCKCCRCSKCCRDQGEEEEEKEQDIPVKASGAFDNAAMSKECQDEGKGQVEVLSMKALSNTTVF

human SLC34A2 [11] = target: T1, human SLC34A2; test: FACS, MDAH2774 cells
human SLC34A2 [12] = target: T1, human SLC34A2; test: FACS, HEK293/human SLC34A2 cells
rat SLC34A2 [13] = target: T3, rat SLC34A2; test: FACS, HEK293/Rat SLC34A2 cells; remark: listed apart in the source
mouse SLC34A2 [14] = target: T4, mouse SLC34A2; test: FACS, HEK293/Mouse SLC34A2 cells; remark: listed apart in the source
human SLC34A2 [15] = target: T1, human SLC34A2; test: FACS, OVCAR3 cells; remark: listed apart in the source
Experimental: The binding of these humanized antibodies to OVCAR3 cells was evaluated as described above, and the results are shown in FIG. 12A-D and Tables 16A-D.

human SLC34A2 [16] = target: T1, human SLC34A2; test: FACS, HEK293/human SLC34A2 cells; remark: listed apart in the source
Method in brief: (§1)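 Humanized antibodies were incubated with HEK293/H_SLC34A2, OVCAR3 or RMG-1 cells at 4° C. for 60 minutes. Cells were washed twice with FACS buffer, stained with fluorescent secondary antibody at 4° C. for 30 minutes, washed twice more and analyzed by flow cytometry.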

human SLC34A2 [17] = target: T1, human SLC34A2; test: FACS, RMG-1 cells; remark: listed apart in the source
Method in brief: as §1

Rhesus SLC34A2 [18] = target: T2, Rhesus SLC34A2; test: FACS, HEK293/Rhesus SLC34A2 cells; remark: listed apart in the source
human SLC34A2 [19] = target: T1, human SLC34A2; test: FACS, OVCAR3 cells; remark: listed apart in the source
Method in brief: as §1

human SLC34A2 [20] = target: T1, human SLC34A2; test: cell-based or functional assay; remark: listed apart in the source

B1: xi71F7D4 hIgG1 (antibody, V domains shown)
VH: DVKLVESGGDLVKLGGSLKLSCAASGFTFSNYYMSWVRQTPEKRLELVAVINSNGGTTYYPDNMKGRFTISRDNAKNTLYLQTSSLKSEDTALYYCGRHEHYYGTNIAWFAYWGQGTLVTVSA
VL: DIVMTQSHKFMSTSVGDRVSITCKASQDVTTAVAWYQQKPGQSPKLLIYWASTRHTGVPDRFTGSGSGTDHTLTISSVQAEDLALYYCQQHYSTPVTFGGGTKLEIK
notes: chimeric, hIgG1
ADCC reporter EC50 (human SLC34A2 [1]): 3.6 nM | ADCC reporter Top (MFI) (human SLC34A2 [1]): 247000 MFI | Top (MFI) (Rhesus SLC34A2 [2]): 5.4e+06 MFI | EC50 (human SLC34A2 [3]): 2.11 nM | Top (MFI) (human SLC34A2 [3]): 47900 MFI | cytotoxicity EC50 (human SLC34A2 [4]): 0.83 nM | cytotoxicity Inhibition % (human SLC34A2 [4]): 99.4% | EC50 (human SLC34A2 [5]): 7.86 nM | Top (MFI) (human SLC34A2 [5]): 28900 MFI | EC50 (human SLC34A2 [6]): 8.36 nM | Top (MFI) (human SLC34A2 [6]): 10200 MFI

B2: RG-7599 (antibody, INN chains, looked up, V domains shown)
VH: EVQLVESGGGLVQPGGSLRLSCAASGFSFSDFAMSWVRQAPGKGLEWVATIGRVAFHTYYPDSMKGRFTISRDNSKNTLYLQMNSLRAEDTAVYYCARHRGFDVGHFDFWGQGTLVTVSS
VL: DIQMTQSPSSLSASVGDRVTITCRSSETLVHSSGNTYLEWYQQKPGKAPKLLIYRVSNRFSGVPSRFSGSGSGTDFTLTISSLQPEDFATYYCFQGSFNPLTFGQGTKVEIK
modifications: vedotin (MMAE) payload
EC50 (rat SLC34A2 [7]): 715 nM | ADCC reporter EC50 (human SLC34A2 [8]): 1.31 nM | ADCC reporter Top (MFI) (human SLC34A2 [8]): 15700 MFI | ADCC-HEK293 (human SLC34A2 [8]): 2.02 nM | ADCC-OVCAR3 (human SLC34A2 [8]): 2.97 nM | Cytotoxic Effect - MDAH-2774 (human SLC34A2 [8]): 6.83 nM | Cytotoxic Effect - OVCAR3 (human SLC34A2 [8]): 0.325 nM | EC50 [9]: 1080 nM | EC50 (mouse SLC34A2 [10]): 412 nM | EC50 (human SLC34A2 [11]): 8.74 nM | EC50 (human SLC34A2 [12]): 8.25 nM

B3: 62G10E4G8.p3.z8 hIgG1 (antibody, V domains shown)
VH: QVQLVQSGAEVKKPGASVKVSCKASGYTFPSYITHWVRQAPGQGLEWIGAIYPGNADTSYIQKFKGRVTMTADKSTSTVYMELSSLRSEDTAVYYCARGTYGTSAWFTYWGQGTLVTVSS
VL: EIVLTQSPATLSASPGERATLSCRARQNIGNNLYWYQQKPGQSPRLLIKYASQSISGIPSRFSGSGSGTDFTLTISSVQSEDFAVYFCQQSFSWPLTFGAGTKLEIK
notes: humanized hIgG1
binding result (rat SLC34A2 [13]): binds | binding result (mouse SLC34A2 [14]): binds | EC50 (human SLC34A2 [15]): 8.61 nM | Top (MFI) (human SLC34A2 [15]): 30000 MFI | EC50 (human SLC34A2 [16]): 4.42 nM | Top (human SLC34A2 [16]): 31500 MFI | EC50 (human SLC34A2 [17]): 11.1 nM | Top (human SLC34A2 [17]): 10900 MFI | EC50 (Rhesus SLC34A2 [18]): 2.5 nM | Top (MFI) (Rhesus SLC34A2 [18]): 12200 MFI | EC50 (human SLC34A2 [19]): 8.61 nM

B4: 62G10E4G8.p3.z11 hIgG1 (antibody, V domains shown)
VH: B3 VH with R38K, M70L, V79A
VL: B3 VL with A13V, V78L, A100Q
notes: humanized hIgG1
binding result (rat SLC34A2 [13]): binds | binding result (mouse SLC34A2 [14]): binds | EC50 (human SLC34A2 [15]): 4.32 nM | Top (MFI) (human SLC34A2 [15]): 28200 MFI | EC50 (human SLC34A2 [16]): 5.07 nM | Top (human SLC34A2 [16]): 31900 MFI | EC50 (human SLC34A2 [17]): 11.4 nM | Top (human SLC34A2 [17]): 11300 MFI | ADCC reporter EC50 (human SLC34A2 [20]): 3.78 nM | ADCC reporter Top (MFI) (human SLC34A2 [20]): 116000 MFI | EC50 (Rhesus SLC34A2 [18]): 3.4 nM | Top (MFI) (Rhesus SLC34A2 [18]): 14700 MFI | EC50 (human SLC34A2 [19]): 4.32 nM
